In patent publication US20230398228A1, “ERIBULIN-BASED ANTIBODY-DRUG CONJUGATES AND METHODS OF USE” (EISAI R&D MANAGEMENT CO., LTD., priority 2016, published 2023):

Columns and labels:
[1] = SEC-HPLC aggregation analysis; assay type: physicochemical
Procedure: The antibody aggregation was analyzed by size-exclusion, high-performance liquid chromatography (SEC-HPLC) using an Agilent 1100. The mAb was diluted to 1 mg/mL in DPBS. The antibody (20 μL) was injected onto a TSKgel® SuperSW guard column (4.6 mm×3.5 cm, 4 μm pore size, Tosoh Bioscience), followed by a TSKgel® SuperSW3000 column (4.6 mm×30 cm, 4 μm pore size), eluted from the column with 0.1 M sodium phosphate containing 0.15 M NaCl and 0.05% NaN3, at pH 7.4, at a flow rate of 0.3 mL/min for 20 min. All data were analyzed using Agilent ChemStation software. Percent aggregation was calculated as [PAaggregate/PAtotal]*100, where PA=integrated peak area.
ADC was diluted to 1 mg/mL in DPBS. ADC (10 μL) was then injected onto an Advanced SEC 300A guard column (4.6 mm×3.5 cm, 2.7 μm pore size, Agilent), followed by a AdvancedBio 300A column (4.6 mm×30 cm, 2.7 μm pore size). ADC was eluted from the column with 0.1 M sodium phosphate containing 0.15 M NaCl and 5% IPA, pH 7.4 at a flow rate of 0.25 mL/min for 28 min. All data were analyzed using Agilent ChemStation software. Percent aggregation was calculated as [PAaggregate/PAtotal]*100, where PA=integrated peak area.

[2] = DAR analysis by LC-MS (UPLC/ESI-MS, reverse-phase LC-MS); conditions: for DAR (LC-MS): reverse-phase LC-MS
Procedure: ADCs were deglycosylated using PNGase F (New England BioLabs). G7 buffer (10 μL) and PNGase F (2 μL) were added to the mAb (90 μL, 1 mg/mL in DPBS). The reaction was incubated in a Discover microwave (CEM) for 2 cycles: (1) microwave power 10 W, 37° C., 10 min, followed by a 5-min pause; (2) microwave power 2 W, 37° C., 10 min. A portion of the sample was reduced by adding DTT to a final concentration of 20 mM, followed by incubation at 60° C. for 3 min. Samples were then analyzed using a Waters Acquity Ultra Performance Liquid Chromatography (UPLC) and quadrupole time of flight (Q-Tof) Premier mass spectrometer. Samples (0.5-2 μg each) were injected onto a MassPrep™ micro desalting column at 65° C., eluted from the column with a 5 min equilibration in 95% of mobile phase A, a 10 min gradient (5-90% B), and a 10 min re-equilibration in 95% of mobile phase A, at 0.05 mL/min. Mobile phase A was 0.1% formic acid in water. Mobile phase B was 0.1% formic acid in acetonitrile. The Q-Tof mass spectrometer was run in positive ion, V-mode with detection in the range of 500-4000 m/z. The source parameters were as follows: capillary voltage, 2.25 kV (intact antibody)-2.50 kV (reduced antibody); sampling cone voltage, 65.0 V (intact antibody) or 50.0 V (reduced antibody); source temperature, 100° C.; desolvation temperature, 250° C.; desolvation gas flow, 550 L/hr. The protein peak was deconvoluted using the MassLynx® MaxEnt 1 function. Relative intensities of each unconjugated, singly-conjugated, and multiply-conjugated heavy and light chain masses were combined to calculate the overall DAR using the formula:
2[[ILC+1+2(ILC+2)+3(ILC+3)+ . . . n(ILC+n)]/ΣILCtot]+2[[IHC+1+2(IHC+2)+3(IHC+3)+ . . . n(IHC+n)]/ΣIHCtot]
where ILC+1 is mass intensity of light chain conjugated with one cytotoxin, ILC+2 is mass intensity of light chain conjugated with two cytotoxins, etc. IHC are the intensities from the corresponding conjugated heavy chains, and ΣILCtot and ΣIHCtot are the combined intensities of all unconjugated and conjugated light chains and heavy chains, respectively.
DAR was also analyzed using an LC-MS method with a Waters Alliance HPLC with SQD/PDA detection. Samples were injected onto a Proteomix RP-1000 column ([…], 1000A, 4.6 mm×15 cm, Sepax) at 65° C., and eluted with a 3 min equilibration in 25% B, a 27 min linear gradient from 25%-55% B, a 5 min hold at 55% B, a 1 min change to 90% B, a 5 min hold at 90% B, a 1 min change back to 25% B, and a 5 min reequilibration at 25% B. Mobile phase A was 0.1% TFA in water, and mobile phase B was 0.1% TFA in acetonitrile. The elute was then split (10:1) into PDA and SQD detectors. The SQD detector was set up as ES positive, capillary voltage at 3.2 kV, cone voltage at 40 V, extractor at 3 V, and RF lens at 0.2 V, source temperature at 150° C., and desolvation temperature at 250° C. Mass data was acquired at 200-2000 m/z for 40 min, continuum mode, scan time 1 second. Data was analyzed and deconvoluted offline using MassLynx and MaxEnt1. DAR was calculated using the formula:
2[[AUCLC+1+2(AUCLC+2)+3(AUCLC+3)+ . . . n(AUCLC+n)]/[…]]+2[[AUCHC+1+2(AUCHC+2)+3(AUCHC+3)+ . . . n(AUCHC+n)]/ΣAUCHCtot]
where AUCLC+1 is the area under the curve of the light chain peak conjugated with one cytotoxin, AUCLC+2 is the area under the curve of the light chain peak conjugated with two cytotoxins, etc. AUCHC is the area under the curve of the corresponding heavy chains, and ΣAUCLCtot and ΣAUCHCtot are the combined area under the curve of all unconjugated and conjugated light chains and heavy chains, respectively.

human mesothelin = human mesothelin (Homo sapiens, UniProt Q13421); assay: ELISA, mesothelin; assay type: binding; conditions: MORAb-009 and its ADCs; for EC50: read-out: Antigen Binding ELISA, EC50
Procedure: Recombinant human mesothelin was diluted to 1 μg/mL in coating buffer (50 mM carbonate-bicarbonate buffer, pH 9.6), and coated onto 96-well Maxisorp black plates (Thermo, Cat No. 43711, 100 μL/well) at 4° C., overnight. Coating solution was discarded and the plates were washed three times using 1×PBS with 0.05% Tween-20 (PBST) buffer. Plates were blocked in 300 μL blocking buffer (1% BSA in PBST) at room temperature for 2 hours on an orbital shaker. […] Blocking buffer was discarded and 100 μL/well of diluted antibody was added to the plates. Plates were incubated at room temperature for 2 hours on an orbital shaker. Antibody solution was discarded and plates were washed three times using PBST. 100 μL/well of goat-anti-human IgG (H+L)-HRP (1:10,000 dilution in blocking buffer) solution was added to the plates, and plates were incubated at room temperature for 1 hour on an orbital shaker. Secondary antibody solution was discarded and plates were washed three times using PBST. 100 μL/well of QuantaBlu fluorogenic peroxidase substrate working solution (Thermo, Cat No. 15169) was added to the plates, and plates were incubated at room temperature for 30 min. Fluorescence was read at excitation 325 nm/emission 420 nm using a SpectraMax M5 (Molecular Devices). Data was analyzed using SoftMaxPro 5.4.2 software with 4-parameter fitting.

IGROV1 cells = assay: Crystal Violet cytotoxicity assay (Example 4), IGROV1; assay type: cell-based, human; conditions: mean of replicate experiments, read-out: Cytotoxicity IC50 (nM), IGROV1 (FR^hi, MSLN^neg)
Procedure: (§1) Test reagents were serial diluted 1:3 in 2 mL deep-well dilution plates, starting at 200 nM (10 dilutions total). […] Medium was then discarded. […] Plates were read at 570 nm. Data was analyzed using GraphPad Prism 6.

NCI-H2110 cells = assay: Crystal Violet cytotoxicity assay (Example 4), NCI-H2110; assay type: cell-based, human; conditions: mean of replicate experiments, read-out: Cytotoxicity IC50 (nM), NCI-H2110 (FR^med, MSLN^med)
Procedure: as §1

A431 cells = assay: Crystal Violet cytotoxicity assay (Example 4), A431 (parental); assay type: cell-based, human; conditions: mean of replicate experiments, read-out: Cytotoxicity IC50 (nM), A431 (FR^neg, MSLN^neg)
Procedure: Test reagents were serial diluted 1:3 in 2 mL deep-well dilution plates, starting at 200 nM (10 dilutions total). […] Medium was then discarded. […] Plates were read at 570 nm. Data was analyzed using GraphPad Prism 6. […]
MAL-PEG2-Val-Cit-PAB-eribulin (ER-001159569) was conjugated to eight different anti-human mesothelin antibodies (Table 1). Binding affinities of the parental antibodies were determined by BIAcore analysis, as described above in section 1.6.1. Aggregation levels for all anti-human mesothelin ADCs were determined by SEC-HPLC and the DAR was analyzed using HIC-HPLC. In vitro potency was evaluated using a Crystal Violet cell-based cytotoxicity assay in A3 (A431 stabily transfected with human mesothelin (MSLN), MSLN^hi), OVCAR3 (human ovarian, MSLN^hi), HEC-251 (human endometroid, MSLN^med), H226 (human lung squamous cell mesothelioma, MSLN^lo), and A431 parental (MSLN^neg) cells.

[3] = test system: LXFA-737 NSCLC patient-derived xenograft; assay: NSCLC PDx model LXFA-737; assay type: in vivo, mouse; conditions: for Tumor Volume / Tumor Growth Inhibition: 5 mg/kg single dose i.v.; for Tumor Growth Inhibition: vehicle = 100
Source text: Tumor implantation: NSCLC tumor fragments were obtained from LXFA-737 tumor xenografts serially passaged in nude mice. After removal from donor mice, tumors were cut into fragments (3-4 mm edge length) and placed in phosphate-buffered saline (PBS) containing 10% penicillin/streptomycin. Recipient animals were anesthetized by inhalation of isoflurane and received unilateral or bilateral tumor implants subcutaneously in the flank. Tumor xenografts were implanted with one or two tumors per mouse at a take rate <65%. In the case of a bilateral take, one of these tumors was explanted prior to randomization. Animals and tumor implants were monitored daily until solid tumor growth was detectable in a sufficient number of animals. At randomization, the volume of growing tumors was determined. […] Animals not used for experiments were euthanized.
Body weight was measured prior to dose on each dosing day, and two times per week during the study. At the end of the study, the terminal body weight was measured and recorded.

[4] = test system: human BM-MSCs co-cultured with MKN-74 cells; assay: 3D co-culture system (rStomach, zPredicta), MSC differentiation by flow cytometry; assay type: cell-based; conditions: 7 days treatment, MORAb-202 10 nM, MORAb-003 10 nM, eribulin […] and 0.2 nM (Table 41)
Procedure: All mesenchymal stem cell (MSC)-containing 3D co-culture experiments were conducted in zPredicta, using organ-specific 3D extracellular matrix systems such as rStomach™. Bone marrow mesenchymal stem cells (BM-MSCs) in rStomach™ were co-cultured with the Nuc Red Light MKN-74 gastric cancer cell line in quadruplicate in 48-well format for 12 days. […] Prior to culture, BM-MSCs were evaluated for target antigen expression and for markers of MSC differentiation (Table 40) by flow cytometry.
Controls included untreated and vehicle-treated (PBS and DMSO) cultures. MSC differentiation was monitored by light microscopy. Once visible differentiation was observed, samples were harvested for staining and flow cytometry analysis.
Bone marrow mesenchymal stem cells (BM-MSCs) in rStomach™ (zPredicta) were co-cultured with the MKN-74 gastric cancer cell line for 12 days. […] Once visible MSC differentiation was observed by light microscopy, samples were harvested for staining and flow cytometry analysis.

In the case of `COc1cc2cc(c1Cl)N(C)C(=O)C[C@H](OC(=O)C(C)N(C)C(=O)CCSC1CC(=O)N(CC3CCC(C(=O)ON4C(=O)CCC4=O)CC3)C1=O)[C@@H]1O[C@H]1[C@H](C)[C@@H]1C[C@@](O)(NC(=O)O1)[C@H](OC)/C=C/C=C(\C)C2` (stereo partly drawn) [M-DM1], the “Aggregation (%)” value ([1]; MORAb-003 ADCs, SEC-HPLC) is reported as 1.8% and the DAR ([2]; MORAb-003 ADCs, DAR by LC-MS) is reported as 3.6.

For MORAb009, the “SEC-HPLC Analysis % Aggr.” value [1] was 0%, the “SEC-HPLC Analysis % Frag.” value [1] was 0% and the “SEC-HPLC Analysis % Monomer” value [1] was 100%. The “Antigen Binding ELISA, EC50” value (human mesothelin) was 0.0426 µg/mL and the EC50 (human mesothelin) was 0.28 nM.

For MORAb009-DBCO-PEG2 eribulin, the “SEC-HPLC Analysis % Aggr.” value [1] was 1.15%, the “SEC-HPLC Analysis % Frag.” value [1] was 0% and the “SEC-HPLC Analysis % Monomer” value [1] was 98.85%. For the same compound, the “DAR (LC-MS)” value [2] was 3.07, the “Antigen Binding ELISA, EC50” value (human mesothelin) was 0.0233 µg/mL and the EC50 (human mesothelin) was 0.16 nM. The IC50 (IGROV1 cells) was 75.7 nM, the IC50 (NCI-H2110 cells) was 85.7 nM and the IC50 (A431 cells) was over 100 nM.

In the case of MORAb009-DBCO-PEG4 VCP eribulin, the “SEC-HPLC Analysis % Aggr.” value [1] is reported as 0.22%, the “SEC-HPLC Analysis % Frag.” value [1] is reported as 0% and the “SEC-HPLC Analysis % Monomer” value [1] is reported as 99.78%. The “DAR (LC-MS)” value [2] was 2.91, the “Antigen Binding ELISA, EC50” value (human mesothelin) was 0.0337 µg/mL and the EC50 (human mesothelin) was 0.22 nM. It also gave an IC50 (IGROV1 cells) of 13 nM, an IC50 (NCI-H2110 cells) of 31.4 nM and an IC50 (A431 cells) of over 100 nM.

In the case of MORAb009-DBCO-PEG4 eribulin, the “SEC-HPLC Analysis % Aggr.” value [1] is reported as 1.12%, the “SEC-HPLC Analysis % Frag.” value [1] is reported as 0% and the “SEC-HPLC Analysis % Monomer” value [1] is reported as 98.88%. For the same compound, the “DAR (LC-MS)” value [2] was 2.8, the “Antigen Binding ELISA, EC50” value (human mesothelin) was 0.0452 µg/mL and the EC50 (human mesothelin) was 0.3 nM. For the same compound, the IC50 (IGROV1 cells) was 61.5 nM, the IC50 (NCI-H2110 cells) was 39.3 nM and the IC50 (A431 cells) was over 100 nM.

With “MORAb-003: humanized anti-human folate receptor alpha antibody (USAN name: farletuzumab)” the “Tumor Volume” value ([3]; Day 21, n = 6) was 860.7 mm^3, the “Tumor Growth Inhibition” value ([3]; Day 21, n = 6) was “(85.7) %” and the “Tumor Volume” value ([3]; Day 32, n = 6) was 1572.1 mm^3. For the same compound, the “Tumor Growth Inhibition” value ([3]; Day 32, n = 6) was “(100.7) %”, the “anti-tumor activity, in words” value ([3]; 5 mg/kg single i.v. dose) was “did not demonstrate significant anti-tumor activity” and the “Percentage of live cells, Pericytes” value ([4]; PBS 14.6%) was 24.0%. The “Percentage of live cells, Adipocytes” value ([4]; PBS […]) was 0.69% and the “Percentage of live cells, MSCs” value ([4]; PBS […]) was 37.1%.
